Experiments:
[1] = molecular target: thyroid-stimulating hormone (TSH) receptor (human) (UniProt P16473); assay: flow cytometry, human PBMC gated on CD4+ CD45RA- memory CD4+ T cells; CGH-biotin 10 ug/ml then streptavidin-PE; background without CGH-biotin 3.4
[2] = molecular target: thyroid-stimulating hormone (TSH) receptor (human) (UniProt P16473); assay: flow cytometry, human PBMC gated on CD3+ T cells; CGH-biotin 10 ug/ml then streptavidin-PE; background without CGH-biotin 4.3
[3] = molecular target: thyroid-stimulating hormone (TSH) receptor (human) (UniProt P16473); assay: flow cytometry, human PBMC gated on CD14+ monocytes; CGH-biotin 10 ug/ml then streptavidin-PE; background without CGH-biotin 9.1
[4] = molecular target: thyroid-stimulating hormone (TSH) receptor (human) (UniProt P16473); assay: flow cytometry, human PBMC gated on CD56+ NK cells; CGH-biotin 10 ug/ml then streptavidin-PE; background without CGH-biotin 3.6
[5] = molecular target: thyroid-stimulating hormone (TSH) receptor (human) (UniProt P16473); assay: flow cytometry, human PBMC gated on CD4+ CD45RA+ naive CD4+ T cells; CGH-biotin 10 ug/ml then streptavidin-PE; background without CGH-biotin 3.5
[6] = molecular target: thyroid-stimulating hormone (TSH) receptor (human) (UniProt P16473); assay: flow cytometry, human PBMC gated on CD19+ B cells; CGH-biotin 10 ug/ml then streptavidin-PE; background without CGH-biotin 3.8
[7] = molecular target: thyroid-stimulating hormone (TSH) receptor (human), P16473; assay: cell-based or functional assay
thyroid-stimulating hormone (TSH) receptor (human), P16473, sequence (P16473 21-764): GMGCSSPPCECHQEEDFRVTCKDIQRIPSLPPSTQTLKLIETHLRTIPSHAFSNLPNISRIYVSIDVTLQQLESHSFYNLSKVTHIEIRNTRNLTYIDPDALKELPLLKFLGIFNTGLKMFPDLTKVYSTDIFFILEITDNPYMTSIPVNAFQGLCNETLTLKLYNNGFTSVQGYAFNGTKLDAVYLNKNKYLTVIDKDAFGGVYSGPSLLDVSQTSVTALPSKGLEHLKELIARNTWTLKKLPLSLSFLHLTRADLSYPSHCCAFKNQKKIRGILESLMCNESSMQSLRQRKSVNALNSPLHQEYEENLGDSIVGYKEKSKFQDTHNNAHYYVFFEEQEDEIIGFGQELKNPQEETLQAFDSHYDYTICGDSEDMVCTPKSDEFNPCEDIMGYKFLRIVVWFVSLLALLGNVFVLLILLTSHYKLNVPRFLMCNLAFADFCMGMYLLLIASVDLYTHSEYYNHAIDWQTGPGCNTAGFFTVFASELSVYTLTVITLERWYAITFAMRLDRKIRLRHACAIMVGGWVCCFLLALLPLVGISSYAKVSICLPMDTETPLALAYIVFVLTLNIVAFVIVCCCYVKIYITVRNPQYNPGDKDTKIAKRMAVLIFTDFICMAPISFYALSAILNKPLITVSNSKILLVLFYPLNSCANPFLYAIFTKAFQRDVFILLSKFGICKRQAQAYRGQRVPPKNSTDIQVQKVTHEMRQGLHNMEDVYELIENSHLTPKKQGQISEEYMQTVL

[8] = test system: LPS-induced mild endotoxemia mouse model; assay: LPS-induced mild endotoxemia mouse model, serum cytokines by ELISA; format: in vivo, C57B1/6 mice; settings: for effect on serum IL-6 levels / effect on serum TNFα levels: 2 mg/kg of the monomer, data not shown
Protocol: An in vivo experiment was designed to examine the effect of CGH in a mouse model of LPS-induced mild endotoxemia. This model mimics acute endotoxemia/sepsis by challenging mice with a low, non-lethal dose of bacterial endotoxin (lipopolysaccharide, LPS). Serum is collected at various timepoints (1-8 hours) after intraperitoneal LPS injection and analyzed for altered expression of a wide variety of pro- and anti-inflammatory cytokines and acute phase proteins that mediate the inflammatory response. The model provides a means to assess the potential anti-inflammatory effects of therapeutic candidates during a robust inflammatory response. To initially assess the model, we measured proinflammatory cytokines in a pilot experiment to collect reference data for the model.
C57B1/6 mice (Charles River Laboratories; 5 mice/group) were treated i.p. with PBS, 0.2 mg/kg CGH in PBS, or 2 mg/kg CGH in PBS 1 hour prior to LPS challenge. The mice were then challenged with 25 ug of LPS i.p. and bled at 1 hour and 4 hours after LPS injection. Serum was analyzed for TNFα (1 hour) and IL-6 (4 hours) levels by ELISA.
To determine if CGH would potentiate the effect of a sub-maximal dose of glucocorticoid, groups of 10 C57B1/6 mice each were treated i.p. with PBS, 0.15 or 1.5 mg/kg Dex, 2 mg/kg CGH, or a combination of CGH and low or high doses of Dex, 1 hour prior to injection of 25 ug LPS i.p. As shown in TABLE 3 (Expt #2), either 2 mg/kg CGH or 1.5 mg/kg Dex treatment alone (1 hour prior to LPS) caused a significant drop in serum TNFα levels at 1 hour, as observed in previous experiments. The effects of CGH administered in conjunction with Dex on inhibition of TNFα production were greater than either dose of Dex alone.

[9] = molecular target: T1, TSHR (Homo sapiens, UniProt P16473); assay: Release of free fatty acids (FFA) from adipose cells; format: cell-based
T1 construct: In adipose cells, sub-nanomolar levels of CGH stimulate release of free fatty acids (FFA); endogenous in cells
T1 sequence (P16473 21-764, species assumed): as the sequence (P16473 21-764) above

[10] = test system: thymus; set-up: species or system C57B1/6 mice; settings: mouse, in vivo
Source text: Since the receptor for CGH, TSH-R, is expressed by the adrenal glands, there was concern that the anti-inflammatory effects observed might be an indirect effect of increasing endogenous corticosteroid production in CGH-treated mice. One well-established side effect of increasing either exogenous or endogenous corticosteroid levels is substantial atrophy of the thymus, as the developing T cells are induced to undergo apoptosis. Therefore, the thymuses of the CGH and Dex-treated mice in the DTH experiments were analyzed. […] Thus, CGH seems to be mediating its anti-inflammatory effects in a manner distinct from that of exgenous glucocorticoids like Dex.

[11] = test system: neutrophils infiltrating the ears; assay: Neutrophil infiltration in ears of DTH mice, anti-Gr-1 immunohistochemistry and histomorphometry; format: in vivo, C57B1/6 mice; settings: anti-Gr-1 staining, DTH experiment #1
Protocol: Ears from mice in DTH experiment #1 were analyzed by immunohistochemistry to assess which cell types were most affected by CGH treatment. Ears were fixed in Zinc/Tris buffer (2.3 mM calcium acetate/31.6 mM zinc acetate/36.7 mM zinc chloride in 0.1M Tris-HCL buffer, pH 7.4) for 24 hours at room temperature and stained with antibodies specific for CD4, CD8, CD11c, and Gr-1 (neutrophils). […] Ears were stained using a TechMate 500 autoimmunostainer (Biotech/Ventana) MIP protocol with some modifications. After drying the slides for 1 hour at 60° C., the sections were stained with a rat anti-mouse Gr-1 mAb (clone 7/4, Serotec, isotype rat IgG2a, used at 1.25 ug/ml final dilution), overnight at 4° C. This step was followed, after a wash, by biotinylated rabbit anti-rat IgG secondary antibody (Dako, used at 10 ug/ml in PBS with 2% normal rabbit serum and 2% nonfat dry milk) for 45 min. The sections were then washed and treated with HP Block (1.5% H2O2 in 50% methanol) 3 times, 7 min each, followed by 25 min in avidin-biotin complex, 3 times of 4 min each in DAB (Diaminobenzidine), then with Methyl green for 10 min.
Histomorphometry was performed to obtain the average pixel density of neutrophils per unit length (1 mm) present in the ear samples. […]

[12] = test system: adrenal cortex; assay: Adenoviral overexpression of CGH in mice, adrenal gland histopathology; format: in vivo, C57BL6 mice; settings: GPHA2- and GPHB5-expressing adenovirus by tail vein, day 20, all eight mice
Source text: Summary: Mice were exposed to CGH through infection with adenovirus particles expressing GPHA2 and GPHB5, leading to overexpression and secretion of CGH from the liver of these animals. […] The hypertrophy was apparent in the inner cortical layers, the zona fasciculata and the zona reticularis. Similarly, mice were exposed to CGH through intraperitoneal injection of recombinant CGH protein alone, recombinant CGH protein along with the glucocorticoid Dexamethasone (Dex), Dex alone, or PBS alone daily for two weeks.
Each group consisted of eight female C57BL6 mice. 7.5×10^11 particles each of GPHA2- and GPHB5-expressing adenovirus were administered by tail vein injection to the experimental group, while 1.5×10^11 particles of adenovirus expressing a parental vector alone were administered to the control group. Animals were sacrificed on day 20 following the injection and tissues were evaluated by a pathologist.

[13] = test system: NCI-H295R; assay: CRE-luciferase reporter assay of cAMP-mediated gene induction in adrenal cortex cells; format: cell-based, human; settings: purified CGH heterodimer
Source text: Summary: A human adrenal cortex cell line, NCI-H295R, was used to study signal transduction of CGH. NCI-H295R was transduced with recombinant adenovirus containing a reporter construct, a firefly luciferase gene under the control of cAMP response element (CRE) enhancer sequences. This assay system detects cAMP-mediated gene induction downstream of activation of Gs-coupled GPCR's (G-protein coupled receptors). […] Typically, CGH elicited a maximal response of 15-40-fold luciferase induction above control media.
NCI-H295R cells were obtained from the ATCC (CRL-2128, Manassas, Va.) and cultured in growth medium as follows: 1:1 mixture of Dulbecco's modified Eagle's medium and Ham's F12 medium with L-glutamine (D-MEM/F-12; GIBCO, cat.# 11320-033) containing 25 mM HEPES buffer (GIBCO, Invitrogen, Carlsbad, Calif., cat.# 15630-080), 1 mM sodium pyruvate (GIBCO, cat.# 11360-070), 1% ITS+1 media supplement (Sigma St. Louis, Mo. cat# 12521) and 2.5% Nu-Serum I (BD Biosciences, Lexington, Ky. cat.#355100). Cells were cultured at 37° C. in a 5% CO2 humidified incubator. […]
Promega's Luciferase Assay System (Promega, Madison, Wis., cat. # E1500) was used to process the treated cells. […] Luciferase activity was measured on a microplate luminometer (PerkinElmer Life Sciences, Inc., model LB 96V2R) following automated injection of luciferase assay substrate.

[14] = molecular target: T2, glycoprotein hormone beta 5 (GPHB5) (human, UniProt Q86YW7 25-130, one N-linked glycosylation (site not stated)); assay: co-expression in CHO cells (Example 5)
T2 construct: Subunit co-expressed with GPHA2 in CHO cells; also called beta subunit of CGH
T2 sequence: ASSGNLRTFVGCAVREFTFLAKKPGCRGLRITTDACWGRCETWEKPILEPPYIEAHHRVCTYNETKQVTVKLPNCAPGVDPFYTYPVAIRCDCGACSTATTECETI

[15] = 2 mg/kg CGH 1 hour prior to LPS, Expt #1

thyroid-stimulating hormone (TSH) receptor (human), sequence (P16473 21-764): as the sequence (P16473 21-764) above

CGH-biotin (biotinylated corticotroph-derived glycoprotein hormone) (from UniProt Q96T91 24-129; Q86YW7 25-130) (ligand)
FL-2 MFI [1]: 8.7 MFI
FL-2 MFI [2]: 9.1 MFI
FL-2 MFI [3]: 56.4 MFI
FL-2 MFI [4]: 11.9 MFI
FL-2 MFI [5]: 4.9 MFI
FL-2 MFI [6]: 12.9 MFI

B1: Corticotroph-derived glycoprotein hormone (CGH), purified recombinant heterodimer, Q96T91 24-129; Q86YW7 25-130 (ligand)
chain 1: QEAVIPGCHLHPFNVTVRSDRQGTCQGSHVAQACVGHCESSAFPSRYSVLVASGYRHNITSVSQCCTISGLKKVKVQLQCVGSRREELEIFTARACQCDMCRLSRY
chain 2: ASSGNLRTFVGCAVREFTFLAKKPGCRGLRITTDACWGRCETWEKPILEPPYIEAHHRVCTYNETKQVTVKLPNCAPGVDPFYTYPVAIRCDCGACSTATTECETI
modifications: here or on the partner: one N-linked glycosylation on the GPHB5 subunit (site not stated); two N-linked glycosylations on the GPHA2 subunit (sites not given)
CRE-driven luciferase reporter induction (cAMP-mediated) in NCI-H295R human adrenal cortex cells [7]: 15 to 40 fold

B2: zlut1: monomer of CGH tested alone; not defined further, presumably the GPHB5 beta subunit (protein, UniProt Q86YW7 25-130, looked up)
Glycoprotein hormone beta-5: ASSGNLRTFVGCAVREFTFLAKKPGCRGLRITTDACWGRCETWEKPILEPPYIEAHHRVCTYNETKQVTVKLPNCAPGVDPFYTYPVAIRCDCGACSTATTECETI
effect on serum IL-6 levels [8]: neither of these monomers had any effect
effect on serum TNFα levels [8]: neither of these monomers had any effect

B3: CGH: heterodimeric protein hormone of alpha subunit GPHA2 (SEQ ID NO:3) and beta subunit GPHB5 (SEQ ID NO:6) (protein, listed as Homo sapiens)
alpha: QEAVIPGCHLHPFNVTVRSDRQGTCQGSHVAQACVGHCESSAFPSRYSVLVASGYRHNITSVSQCCTISGLKKVKVQLQCVGSRREELEIFTARACQCDMCRLSRY
beta: ASSGNLRTFVGCAVREFTFLAKKPGCRGLRITTDACWGRCETWEKPILEPPYIEAHHRVCTYNETKQVTVKLPNCAPGVDPFYTYPVAIRCDCGACSTATTECETI
levels that stimulate release of free fatty acids (FFA) [9]: sub-nanomolar
molar concentration stimulating release of FFA, lower compared to TSH ([9]; compared to TSH): 10 fold
relative proportion of each thymocyte subset compared with the PBS-treated group [10]: not significantly different
number of neutrophils infiltrating the ears compared to the PBS-treated controls [11]: clear reduction
histomorphological changes of the inner adrenal cortical cells [12]: profound hypertrophy and uniformly finely, foamy vacuolization
dose-dependent induction of luciferase activity compared with 10 μM forskolin [13]: equal to or higher than that induced by 10 μM forskolin
increase of serum IL-6 levels at the 4 hour time point [8, 15]: about 70%
reduction of the TNFα induction at the 1 hour time point [8, 15]: about 60%

B4: zsig51: alpha subunit of CGH, glycoprotein hormone alpha2, previously called Zsig51; tested as monomer (protein)
chain: QEAVIPGCHLHPFNVTVRSDRQGTCQGSHVAQACVGHCESSAFPSRYSVLVASGYRHNITSVSQCCTISGLKKVKVQLQCVGSRREELEIFTARACQCDMCRLSRY
effect on serum IL-6 levels [8]: neither of these monomers had any effect
effect on serum TNFα levels [8]: neither of these monomers had any effect

B5: glycoprotein hormone alpha2 (GPHA2) (ligand)
chain: QEAVIPGCHLHPFNVTVRSDRQGTCQGSHVAQACVGHCESSAFPSRYSVLVASGYRHNITSVSQCCTISGLKKVKVQLQCVGSRREELEIFTARACQCDMCRLSRY
modifications: two N-linked glycosylations (sites not given)
notes: Subunit co-expressed with GPHB5 in CHO cells; also called Zsig51; zsig51
binding result [14]: binds
